Blank lines part the entries; values can stand above or below the binder they belong to.
Tests used:
huNav1.7α + β1 [1] = biological target: huNav1.7α + β1 (human); test: cell-based or functional assay
rhNav1.7α + β1-β2-β3 [2] = biological target: rhNav1.7α + β1-β2-β3 (rhesus monkey); test: cell-based or functional assay
huNav1.7α + β1 [3] = biological target: huNav1.7α + β1 (human); test: cell-based or functional assay; remark: listed apart in the source
rhNav1.7α + β1-β2-β3 [4] = biological target: rhNav1.7α + β1-β2-β3 (rhesus monkey); test: cell-based or functional assay; remark: listed apart in the source
huNav1.7α + β1 [5] = biological target: T1, huNav1.7α + β1 (human); test: binding FACS, HEK
T1 construct: HEK293 cells; also called huNav1.7-beta1; huNav1.7-β1

huNav1.7α = biological target: T2, huNav1.7α (human, UniProt Q15858 1-1988); test: binding FACS, HEK
T2 construct: HEK cells expressing the α subunit without β subunits; also called huNav1.7 (alpha-subunit); Human Nav1.7α

huNav1.7α + β1-β2-β3 [6] = biological target: T3, huNav1.7α + β1-β2-β3 (human, UniProt Q15858 1-1988; A5A6L6 19-218; O60939 30-215; Q2KI11 23-215); test: competition FACS vs EC25 of 275B05(N93R), CHO FlpIn
T3 construct: also called huNav1.7-beta1-beta2-beta3; huNav1.7-β1-β2-β3

rhNav1.7α + β1-β2-β3 [7] = biological target: T4, rhNav1.7α + β1-β2-β3 (rhesus monkey); test: as above
T4 construct: also called rhNav1.7-beta1-beta2-beta3; rhNav1.7-β1-β2-β3

huNav1.7α + β1-β2-β3 [8] = biological target: T3, huNav1.7α + β1-β2-β3; test: competition FACS IC50 with 50 µM human SA against without
rhNav1.7α + β1-β2-β3 [9] = biological target: T4, rhNav1.7α + β1-β2-β3; test: as above
huNav1.7α + β1-β2-β3 [10] = biological target: T3, huNav1.7α + β1-β2-β3; test: competition FACS vs EC25 of 275B05(N93R), CHO FlpIn, + 50 µM human SA
rhNav1.7α + β1-β2-β3 [11] = biological target: T4, rhNav1.7α + β1-β2-β3; test: as above
huNav1.7α+β1-β2-β3 = biological target: T5, huNav1.7α+β1-β2-β3 (human, UniProt Q15858 1-1988; Q07699 19-218; O60939 30-215; Q9NY72 23-215); test: binding FACS
T5 construct: 5N11S variant; also called huNav1.7-beta1-beta2-beta3; huNav1.7α+Navβ1-Navβ2-Navβ3

rhNav1.7α+β1-β2-β3 = biological target: T6, rhNav1.7α+β1-β2-β3 (rhesus monkey α subunit with human β …); test: binding FACS
T6 construct: P2A cleaves it into α, β1, β2, β3; also called rhNav1.7-beta1-beta2-beta3

huNav1.7α + β1-β2-β3 [12] = biological target: T7, huNav1.7α + β1-β2-β3 (human, UniProt Q15858 1-1988; A5A6L6 19-218; O60939 30-215; Q2KI11 23-215); test: competition FACS, HEK FlpIn cells, vs EC30 of CMYC3-F0103265B04
T7 construct: Cell line (CHO FlpIn, HEK FlpIn, transient HEK293T) is named under assay; also called huNav1.7-beta1-beta2-beta3; human Nav1.7α with Navβ1, Navβ2 and Navβ3
In short: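 HEK FlpIn cells expressing huNav1.7α+β1-β2-β3 (1×10⁵/well) were incubated 1.5 h at 4 °C with a dilution series of purified ISVD plus CMYC3-tagged F0103265B04 at EC30-equivalent concentration in PBS, 2% FBS, 0.05% NaN₃. Flow cytometry read-out with 5 nM TOPRO3 to exclude dead cells.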

[13] = biological target: T8, huNav1.7α(F276V) + β1-β2-β3 (human, UniProt Q15858 1-1988; A5A6L6 19-218; O60939 30-215; Q2KI11 23-215); test: binding FACS, CHO FlpIn cells
T8 construct: polyprotein as encoded, P2A sites liberate the subunits; the entry already carries F276V; also called huNav1.7(F276V)-beta1-beta2-beta3
In short: (§1)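 Flow cytometry binding assay on stable CHO FlpIn cell lines expressing Nav1.7α (human wild type, single DI S5-S6 point variants, or rhesus) with β1-β2-β3. Cells in FACS buffer (PBS, 10% FBS, NaN₃) were plated at 1×10^5 cells/well in 96-well V-bottom plates. FLAG3-tagged ISVDs were added for 30 minutes at 4° C and detected with murine anti-Flag. Dead cells were excluded using 1 μg/mL propidium iodide, and EC50 was determined.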

[14] = biological target: T9, huNav1.7α(R277Q) + β1-β2-β3 (human); test: binding FACS, CHO FlpIn cells
T9 construct: polyprotein as encoded; the entry already carries R277Q; also called huNav1.7(R277Q)-beta1-beta2-beta3
In short: as §1

huNav1.7α + β1-β2-β3 [15] = biological target: T7, huNav1.7α + β1-β2-β3; test: binding FACS, CHO FlpIn cells
In short: as §1

[16] = biological target: T10, huNav1.7α(V331M) + β1-β2-β3 (human); test: binding FACS, CHO FlpIn cells
T10 construct: polyprotein as encoded; the entry already carries V331M; also called huNav1.7(V331M)-beta1-beta2-beta3
In short: as §1

[17] = biological target: T11, huNav1.7α(E281V) + β1-β2-β3 (human); test: binding FACS, CHO FlpIn cells
T11 construct: polyprotein as encoded; the entry already carries E281V; also called huNav1.7(E281V)-beta1-beta2-beta3
In short: as §1

[18] = biological target: T12, huNav157chim12 + β1-β2-β3 (human, UniProt Q15858 1-1988; A5A6L6 19-218; O60939 30-215; Q2KI11 23-215); test: FACS, transiently transfected HEK293T cells
T12 construct: DI S5-S6 from Nav1.5α, rest Nav1.7α; also called huNav157 chimera 12
Experimental: (§2) Binding of the ISVDs to cell-expressed Nav1.7α was detected via murine anti-Flag (Sigma, catalog #F1804). Briefly, cells were resuspended in FACS buffer (PBS, 10% FBS, NaN₃) and transferred to a 96-well V-bottom plate at 1×10^5 cells/well. Purified FLAG3-tagged ISVD was diluted in FACS buffer and added to the cells for 30 minutes at 4° C. […] Prior to the read-out, the samples were resuspended in 1 μg/mL propidium iodide (Sigma, catalog #P4170) to exclude dead cells. Between each step, the cells were centrifuged for 5 minutes at 200 grams and washed with 100 μL/well FACS buffer.
(§3) FACS binding studies (as described above) were performed on HEK293T cells transiently transfected with expression vectors encoding a huNav1.7α or rhNav1.7α fused at the C-terminus via a P2A viral peptide linker to a single polypeptide encoding sodium channel beta subunits Navβ1, Navβ2, and Navβ3 in tandem (β1-β2-β3; SEQ ID NO:21). Similarly, HEK293T cells transiently transfected with expression vectors encoding chimeric variants of huNav1.7α in which individual domains are replaced by their huNav1.5α counterparts (chimeras 1 to 4 in FIG. 16) or with chimeric variants of huNav1.5 in which individual domains are replaced by their huNav1.7α counterparts (chimeras 5 to 8 in FIG. 16) fused at the C-terminus via a P2A viral peptide linker to β1-β2-β3 as above. See Table 7 for description of the expression vectors encoding the chimeras, Table 21 and FIG. 16).

huNav157chim5 + β1-β2-β3 = biological target: T13, huNav157chim5 + β1-β2-β3 (human); test: FACS, transiently transfected HEK293T cells
T13 construct: DI, DII, DIII from Nav1.5α, DIV from Nav1.7α; also called huNav157 chimera 5
Experimental: as §2, §3

huNav157chim1 + β1-β2-β3 = biological target: T14, huNav157chim1 + β1-β2-β3 (human, UniProt Q15858 1-1962; A5A6L6 19-218; O60939 30-215; Q2KI11 23-215); test: FACS, transiently transfected HEK293T cells
T14 construct: DI, DII, DIII from Nav1.7α, DIV from Nav1.5α; fused by P2A to β1-β2-β3; also called huNav157 chimera 1
Experimental: as §2, §3

huNav157chim7 + β1-β2-β3 = biological target: T15, huNav157chim7 + β1-β2-β3 (human); test: FACS, transiently transfected HEK293T cells
T15 construct: DI, DIII, DIV from Nav1.5α, DII from Nav1.7α; also called huNav157 chimera 7
Experimental: as §2, §3

huNav157chim6 + β1-β2-β3 = biological target: T16, huNav157chim6 + β1-β2-β3 (human); test: FACS, transiently transfected HEK293T cells
T16 construct: DI, DII, DIV from Nav1.5α, DIII from Nav1.7α; also called huNav157 chimera 6
Experimental: as §2, §3

huNav157chim4 + β1-β2-β3 = biological target: T17, huNav157chim4 + β1-β2-β3 (human, UniProt Q15858 44-1988; A5A6L6 19-218; O60939 30-215; Q2KI11 23-215); test: FACS, transiently transfected HEK293T cells
T17 construct: DII, DIII, DIV from Nav1.7α, DI from Nav1.5α; also called huNav157 chimera 4
Experimental: as §2, §3

- QPatch electrophysiology IC50 [M], HEK cells (huNav1.7α + β1 [1]): 1.8e-08 M
- QPatch electrophysiology IC50 [M], HEK cells (rhNav1.7α + β1-β2-β3 [2]): 6e-09 M
- Qpatch IC50 [M], HEK cells (huNav1.7α + β1 [3]): 1.8e-08 M
- Qpatch IC50 [M], HEK cells (rhNav1.7α + β1-β2-β3 [4]): 6e-09 M
- EC50 (huNav1.7α + β1 [5]): 4.2 nM
- EC50 (huNav1.7α): 4.9 nM
- IC50 (huNav1.7α + β1-β2-β3 [6]): 37 nM
- IC50 (rhNav1.7α + β1-β2-β3 [7]): 14 nM
- Human SA ratio (huNav1.7α + β1-β2-β3 [8]): 1
- Human SA ratio (rhNav1.7α + β1-β2-β3 [9]): 1
- IC50 (huNav1.7α + β1-β2-β3 [10]): 39 nM
- IC50 (rhNav1.7α + β1-β2-β3 [11]): 16 nM
B1: F010301656 (VHH)
VHH: EVQLVESGGGLAQPGGSLRLSCAASGPVFNINRMAWYRRAPGKQRELVAYVTPTGDISYTDSVKGRFTISRDGSKRWSLQMNSLTPEDTAVYYCRALLQPDSYSNTRTYWGQGTLVTVSS
notes: also called F0103387G04(K33R, S50Y, S56D, N93R)-FLAG3-HIS6

- fold improved binding vs F0103387G04 (huNav1.7α+β1-β2-β3): 2 fold
- fold improved binding vs F0103387G04 (rhNav1.7α+β1-β2-β3): 20 fold
B2: F010302383 (VHH)
VHH: EVQLVESGGGVVQPGGSLRLSCAASGPVFNINRMAWYRQAPGKQRELVAYVTPTGDISYADSVKGRFTISRGGSKRVYLQMNSLRPEDTALYYCRALLQPSSYSGTRTYWGQGTLVTVSS
notes: also called F0103387G04(L11V, A12V, K33R, R39Q, S50Y, S56D, T60A, D72G, W78V, S79Y, T83R, V89L, N93R, D99S, N100cG)+FLAG3-HIS6

- IC50 (huNav1.7α + β1-β2-β3 [12]): 98 nM
- EC50 [13]: 26 nM
- EC50 [14]: 25 nM
- EC50 (huNav1.7α + β1-β2-β3 [15]): 30 nM
- EC50 [16]: 21 nM
- EC50 [17]: 24 nM
- binding result [18]: no binding (tested: 1 µM)
- binding result (huNav157chim5 + β1-β2-β3): no binding (tested: 1 µM)
- binding result (huNav157chim1 + β1-β2-β3): no binding (tested: 1 µM)
- binding result (huNav157chim7 + β1-β2-β3): no binding (tested: 1 µM)
- binding result (huNav157chim6 + β1-β2-β3): no binding (tested: 1 µM)
- binding result (huNav157chim4 + β1-β2-β3): no binding (tested: 1 µM)
B3: F0103275B05 (VHH)
VHH: EVQLVESGGGLVQPGGSLRLSCAASGSIFNINSMAWYRRAPGKQRELVASSTNGGSTNYADSVKGRFTISRDNAKRVYLQMNSLTPEDTAVYYCNALLQPSIYDISRTYWGQGTLVTVSS
notes: entry includes the FLAG-HIS6 tag; also called F0103275B05 (parental)-FLAG-HIS6

From patent US20240002497A1 (Merck Sharp & Dohme, published 2024)
